In patent publication US20260250402A1 (C O INMAGENE PTE, published 2026):

B1: HuAb005 (antibody, V domains shown)
VH: QVQLVQSGAEVKKPGASVKVSCKASGYRFTDYELHWVRQAPGQGLEWMGGIDPKTGGTAYNQKFKGRVTMTSDRSTSTVYMELSSLRSEDTAVYYCARSGGRWYFDVWGQGTTVTVSS
VL: DIVLTQSPASLAVSPGQRATITCRTSESVSIHLLHLMHWYQQKPGQPPKLLIYGASNLESGVPARFSGSGSGTDFTLTINPVEAEDTANYYCQQSIKDPYTFGGGTKVEIK
notes: Humanized version of cmAb011; also called humanized VL1 / humanized VH2
B2: HuAb016 (antibody, V domains shown)
VH: QVQLVQSGAEVKKPGASVKVSCKASGYRFTDYELHWVRQAPGQGLEWMGGIDPKTGGTAYNQKFKGKVTLTSDRSTSTVYMELSSLRSEDTAVYYCARSGGRWYFDVWGQGTTVTVSS
VL: DIVLTQSPDSLAVSLGERATINCRTSESVSIHLLHLMHWYQQKPGQPPKLLIYGASNLESGVPDRFSGSGSETDFTLTISSLQAEDVAVYYCQQSIKDPYTFGGGTKVEIK
notes: Humanized version of cmAb011; also called humanized VL4 / humanized VH4
B3: HuAb015 (antibody, V domains shown)
VH: QVQLVQSGAEVKKPGASVKVSCKASGYRFTDYELHWVRQAPGQGLEWMGGIDPKTGGTAYNQKFKGKVTLTSDRSTSTVYMELSSLRSEDTAVYYCARSGGRWYFDVWGQGTTVTVSS
VL: DIVMTQSPDSLAVSLGERATINCRTSESVSIHLLHLMHWYQQKPGQPPKLLIYGASNLESGVPDRFSGSGSGTDFTLTISSLQAEDVAVYYCQQSIKDPYTFGGGTKVEIK
notes: Humanized version of cmAb011; also called humanized VL3 / humanized VH4
B4: HuAb019 (antibody, V domains shown)
VH: QVQLVQSGAEVKKPGASVKVSCKASGYRFTDYELHWVKQAPGQGLEWIGGIDPKTGGTAYNQKFKGKVTLTSDRSTSTVYMELSSLRSEDTAVYYCARSGGRWYFDVWGQGTTVTVSS
VL: DIVMTQSPDSLAVSLGERATINCRTSESVSIHLLHLMHWYQQKPGQPPKLLIYGASNLESGVPDRFSGSGSGTDFTLTISSLQAEDVAVYYCQQSIKDPYTFGGGTKVEIK
notes: Humanized version of cmAb011; also called humanized VL3 / humanized VH5
B5: HuAb011 (antibody, V domains shown)
VH: QVQLVQSGAEVKKPGASVKVSCKASGYRFTDYELHWVKQAPGQGLEWIGGIDPKTGGTAYNQKFKGRVTMTSDRSTSTVYMELSSLRSEDTAVYYCARSGGRWYFDVWGQGTTVTVSS
VL: DIVMTQSPDSLAVSLGERATINCRTSESVSIHLLHLMHWYQQKPGQPPKLLIYGASNLESGVPDRFSGSGSGTDFTLTISSLQAEDVAVYYCQQSIKDPYTFGGGTKVEIK
notes: Humanized version of cmAb011; also called humanized VL3 / humanized VH3
B6: HuAb020 (antibody, V domains shown)
VH: QVQLVQSGAEVKKPGASVKVSCKASGYRFTDYELHWVKQAPGQGLEWIGGIDPKTGGTAYNQKFKGKVTLTSDRSTSTVYMELSSLRSEDTAVYYCARSGGRWYFDVWGQGTTVTVSS
VL: DIVLTQSPDSLAVSLGERATINCRTSESVSIHLLHLMHWYQQKPGQPPKLLIYGASNLESGVPDRFSGSGSETDFTLTISSLQAEDVAVYYCQQSIKDPYTFGGGTKVEIK
notes: Humanized version of cmAb011; also called humanized VL4 / humanized VH5
B7: HuAb012 (antibody, V domains shown)
VH: QVQLVQSGAEVKKPGASVKVSCKASGYRFTDYELHWVKQAPGQGLEWIGGIDPKTGGTAYNQKFKGRVTMTSDRSTSTVYMELSSLRSEDTAVYYCARSGGRWYFDVWGQGTTVTVSS
VL: DIVLTQSPDSLAVSLGERATINCRTSESVSIHLLHLMHWYQQKPGQPPKLLIYGASNLESGVPDRFSGSGSETDFTLTISSLQAEDVAVYYCQQSIKDPYTFGGGTKVEIK
notes: Humanized version of cmAb011; also called humanized VL4 / humanized VH3
B8: HuAb006 (antibody, V domains shown)
VH: QVQLVQSGAEVKKPGASVKVSCKASGYRFTDYELHWVRQAPGQGLEWMGGIDPKTGGTAYNQKFKGRVTMTSDRSTSTVYMELSSLRSEDTAVYYCARSGGRWYFDVWGQGTTVTVSS
VL: DIVLTQSPASLAVSPGQRATITCRTSESVSIHLLHLMHWYQQKPGQPPKLLIYGASNLESGVPARFSGSGSETDFTLTINPVEAEDTANYYCQQSIKDPYTFGGGTKVEIK
notes: Humanized version of cmAb011; also called humanized VL2 / humanized VH2
B9: HuAb017 (antibody, V domains shown)
VH: QVQLVQSGAEVKKPGASVKVSCKASGYRFTDYELHWVKQAPGQGLEWIGGIDPKTGGTAYNQKFKGKVTLTSDRSTSTVYMELSSLRSEDTAVYYCARSGGRWYFDVWGQGTTVTVSS
VL: DIVLTQSPASLAVSPGQRATITCRTSESVSIHLLHLMHWYQQKPGQPPKLLIYGASNLESGVPARFSGSGSGTDFTLTINPVEAEDTANYYCQQSIKDPYTFGGGTKVEIK
notes: Humanized version of cmAb011; also called humanized VL1 / humanized VH5
B10: HuAb010 (antibody, V domains shown)
VH: QVQLVQSGAEVKKPGASVKVSCKASGYRFTDYELHWVKQAPGQGLEWIGGIDPKTGGTAYNQKFKGRVTMTSDRSTSTVYMELSSLRSEDTAVYYCARSGGRWYFDVWGQGTTVTVSS
VL: DIVLTQSPASLAVSPGQRATITCRTSESVSIHLLHLMHWYQQKPGQPPKLLIYGASNLESGVPARFSGSGSETDFTLTINPVEAEDTANYYCQQSIKDPYTFGGGTKVEIK
notes: Humanized version of cmAb011; also called humanized VL2 / humanized VH3
B11: HuAb002 (antibody, V domains shown)
VH: QVQLVQSGAEVKKPGASVKVSCKASGYRFTDYELHWVRQAPGQGLEWMGGIDPKTGGTAYNQKFKGRVTMTRDTSTSTVYMELSSLRSEDTAVYYCARSGGRWYFDVWGQGTTVTVSS
VL: DIVLTQSPASLAVSPGQRATITCRTSESVSIHLLHLMHWYQQKPGQPPKLLIYGASNLESGVPARFSGSGSETDFTLTINPVEAEDTANYYCQQSIKDPYTFGGGTKVEIK
notes: Humanized version of cmAb011; also called humanized VL2 / humanized VH1
B12: HuAb007 (antibody, V domains shown)
VH: QVQLVQSGAEVKKPGASVKVSCKASGYRFTDYELHWVRQAPGQGLEWMGGIDPKTGGTAYNQKFKGRVTMTSDRSTSTVYMELSSLRSEDTAVYYCARSGGRWYFDVWGQGTTVTVSS
VL: DIVMTQSPDSLAVSLGERATINCRTSESVSIHLLHLMHWYQQKPGQPPKLLIYGASNLESGVPDRFSGSGSGTDFTLTISSLQAEDVAVYYCQQSIKDPYTFGGGTKVEIK
notes: Humanized version of cmAb011; also called humanized VL3 / humanized VH2
B13: HuAb014 (antibody, V domains shown)
VH: QVQLVQSGAEVKKPGASVKVSCKASGYRFTDYELHWVRQAPGQGLEWMGGIDPKTGGTAYNQKFKGKVTLTSDRSTSTVYMELSSLRSEDTAVYYCARSGGRWYFDVWGQGTTVTVSS
VL: DIVLTQSPASLAVSPGQRATITCRTSESVSIHLLHLMHWYQQKPGQPPKLLIYGASNLESGVPARFSGSGSETDFTLTINPVEAEDTANYYCQQSIKDPYTFGGGTKVEIK
notes: Humanized version of cmAb011; also called humanized VL2 / humanized VH4
B14: HuAb001 (antibody, V domains shown)
VH: QVQLVQSGAEVKKPGASVKVSCKASGYRFTDYELHWVRQAPGQGLEWMGGIDPKTGGTAYNQKFKGRVTMTRDTSTSTVYMELSSLRSEDTAVYYCARSGGRWYFDVWGQGTTVTVSS
VL: DIVLTQSPASLAVSPGQRATITCRTSESVSIHLLHLMHWYQQKPGQPPKLLIYGASNLESGVPARFSGSGSGTDFTLTINPVEAEDTANYYCQQSIKDPYTFGGGTKVEIK
notes: Humanized version of cmAb011; also called humanized VL1 / humanized VH1
B15: HuAb018 (antibody, V domains shown)
VH: QVQLVQSGAEVKKPGASVKVSCKASGYRFTDYELHWVKQAPGQGLEWIGGIDPKTGGTAYNQKFKGKVTLTSDRSTSTVYMELSSLRSEDTAVYYCARSGGRWYFDVWGQGTTVTVSS
VL: DIVLTQSPASLAVSPGQRATITCRTSESVSIHLLHLMHWYQQKPGQPPKLLIYGASNLESGVPARFSGSGSETDFTLTINPVEAEDTANYYCQQSIKDPYTFGGGTKVEIK
notes: Humanized version of cmAb011; also called humanized VL2 / humanized VH5

Experiments:
[1] = target: T1, cynomolgus IL-7Ra expressed on CHOK1-cyno IL-7Ra cells (cynomolgus, UniProt Q38IC7 21-459); test: flow cytometry, CHOK1-cyno IL-7Ra cells
T1 sequence: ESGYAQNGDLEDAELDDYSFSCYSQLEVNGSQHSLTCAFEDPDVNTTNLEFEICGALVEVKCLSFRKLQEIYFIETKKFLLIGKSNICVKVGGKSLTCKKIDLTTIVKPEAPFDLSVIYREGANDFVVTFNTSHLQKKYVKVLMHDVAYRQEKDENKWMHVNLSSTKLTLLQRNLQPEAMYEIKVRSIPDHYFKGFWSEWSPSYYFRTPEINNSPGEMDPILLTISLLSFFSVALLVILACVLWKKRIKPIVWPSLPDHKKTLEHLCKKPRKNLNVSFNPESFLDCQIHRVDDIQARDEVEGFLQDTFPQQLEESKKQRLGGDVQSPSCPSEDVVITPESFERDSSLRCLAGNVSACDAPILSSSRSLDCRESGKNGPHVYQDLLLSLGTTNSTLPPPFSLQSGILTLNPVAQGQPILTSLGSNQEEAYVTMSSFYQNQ

[2] = target: T2, human IL-7Ra expressed on CHOK1-human IL-7Ra cells (human, UniProt P16871 21-459); test: flow cytometry, CHOK1-human IL-7Ra cells
T2 construct: also called human IL-7Ra expressed on cell membrane; CD127
T2 sequence: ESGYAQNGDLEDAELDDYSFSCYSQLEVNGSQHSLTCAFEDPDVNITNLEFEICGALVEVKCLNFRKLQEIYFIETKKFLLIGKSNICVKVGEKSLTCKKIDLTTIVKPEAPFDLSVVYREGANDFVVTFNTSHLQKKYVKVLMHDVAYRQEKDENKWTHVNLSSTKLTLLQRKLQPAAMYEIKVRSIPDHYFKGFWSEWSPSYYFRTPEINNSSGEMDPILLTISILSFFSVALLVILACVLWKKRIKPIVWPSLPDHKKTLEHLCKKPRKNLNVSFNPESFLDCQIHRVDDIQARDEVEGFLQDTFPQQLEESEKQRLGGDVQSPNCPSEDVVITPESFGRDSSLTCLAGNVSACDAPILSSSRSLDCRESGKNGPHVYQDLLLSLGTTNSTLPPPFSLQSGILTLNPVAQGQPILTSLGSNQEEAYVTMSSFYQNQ

[3] = target: T3, Human his-tag IL-7Ra protein (human, UniProt P16871 21-239); test: SPR Biacore 8K, antibody Fc-captured, human his-tag IL-7Ra analyte, 1:1 model
T3 construct: Construct not described; Position of the tag unknown; also called IL-7Ra (Biacore analyte); not shown: his tag
T3 sequence: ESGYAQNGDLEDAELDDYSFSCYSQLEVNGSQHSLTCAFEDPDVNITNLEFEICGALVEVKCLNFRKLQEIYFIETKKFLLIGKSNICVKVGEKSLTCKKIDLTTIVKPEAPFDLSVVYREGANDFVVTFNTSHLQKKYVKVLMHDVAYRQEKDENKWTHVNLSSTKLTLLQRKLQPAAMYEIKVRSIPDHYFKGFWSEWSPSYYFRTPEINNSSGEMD

Binder	EC50 [1] [µg/mL]	Top (MFI) [1] [MFI]	EC50 [2] [µg/mL]	Top (MFI) [2] [MFI]	Kd [3] [pM]	koff [3] [s⁻¹]	kon [3] [M⁻¹ s⁻¹]
B1	0.207	16900	0.188	22300	214	0.000238	1.11e+06
B2	0.128	17100	0.113	23700	–	–	–
B3	0.189	17400	0.158	24100	–	–	–
B4	0.687	18000	0.536	22800	–	–	–
B5	0.241	17700	0.256	20500	–	–	–
B6	0.124	17600	0.115	22500	–	–	–
B7	0.165	17000	0.159	20300	–	–	–
B8	0.191	16700	0.177	21600	–	–	–
B9	0.0891	17700	0.0778	24600	–	–	–
B10	0.175	17500	0.152	20600	–	–	–
B11	0.126	15900	0.115	22600	–	–	–
B12	0.244	17100	0.209	21100	–	–	–
B13	0.0534	16700	0.0529	23900	–	–	–
B14	0.167	16000	0.17	22300	–	–	–
B15	0.0988	18400	0.105	24100	–	–	–
